Assay results as given in paper PMC3167633.
Substitutions are numbered along the chain they refer to.

T1: Haa1(DBD)-His6 (Saccharomyces cerevisiae, UniProt Q12753 1-123)
T1 sequence: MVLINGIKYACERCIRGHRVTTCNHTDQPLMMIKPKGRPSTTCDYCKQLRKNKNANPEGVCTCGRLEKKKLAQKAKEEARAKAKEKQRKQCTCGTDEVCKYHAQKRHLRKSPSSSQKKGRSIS

B1: TPO3 wild-type HRE (GGCGAGGGG) (dsDNA)
DNA 1: TTCTCTGTGCTTGGCGAGGGGTTTACTGGAGCCCAATC
DNA 2: GATTGGGCTCCAGTAAACCCCTCGCCAAGCACAGAGAA
B2: HRE mutant 8 (GGCGAGGGA) (dsDNA)
DNA 1: B1 DNA 1 with G21A
DNA 2: B1 DNA 2 with C18T
B3: HRE mutant 3 (GGCGCGGGG) (dsDNA)
DNA 1: B1 DNA 1 with A17C
DNA 2: B1 DNA 2 with T22G
B4: HRE mutant 4 (GGCGAAGGG) (dsDNA)
DNA 1: B1 DNA 1 with G18A
DNA 2: B1 DNA 2 with C21T
B5: HRE mutant 1 (AGCGAGGGG) (dsDNA)
DNA 1: B1 DNA 1 with G13A
DNA 2: B1 DNA 2 with C26T
B6: HRE mutant 6 (GGCGAGGCG) (dsDNA)
DNA 1: B1 DNA 1 with G20C
DNA 2: B1 DNA 2 with C19G
B7: HRE mutant 7 (GGCGAGGAG) (dsDNA)
DNA 1: B1 DNA 1 with G20A
DNA 2: B1 DNA 2 with C19T
B8: HRE mutant 2 (GGCCAGGGG) (dsDNA)
DNA 1: B1 DNA 1 with G16C
DNA 2: B1 DNA 2 with C23G
B9: HRE mutant 5 (GGCGAGAGG) (dsDNA)
DNA 1: B1 DNA 1 with G19A
DNA 2: B1 DNA 2 with C20T

What follows are binders tested against T1, Haa1(DBD)-His6 (assay: SPR).
Work on B1 yielded a Kd of 2 ± 0.2 nM.
With B2 the Kd was 119 ± 3.6 nM.
For B3, the Kd was 13.6 ± 0.9 nM.
B4 showed a Kd of 396 ± 51.1 nM.
B5 was tested, and the Kd was 1.9 ± 0.3 nM.
With B6 the Kd was 38.5 ± 4.5 nM.
In the case of B7, the Kd is reported as 6780 ± 865 nM.
Binder B8 has a Kd of 4.3 ± 0.3 nM.
Work on B9 yielded a Kd of 21.4 ± 6.1 nM.
